# Experimental data: publication PMC4900678
# Test system: Rrp5_C8;Rok1 (Saccharomyces cerevisiae;Saccharomyces cerevisiae)
# Assay: glycerol gradient sedimentation
# Details: EMSA: 200 mM KCl, 10 mM MgCl2, 40 mM HEPES/KOH pH 7.5, 10 mM Mg-AMPPCP or 1 mM Mg-ADP, 12 min 25 C, native gel 4 C. 40S binding: 200 mM KOAc, 20 mM HEPES/KOH …
substance,measurement,setting,value
mature 40S ribosomal subunit (18S rRNA),binding signal,"400 uM ADP, 98% of Rrp5 free",2 % Rrp5 bound
same,binding signal,4 mM AMPPCP,15 % Rrp5 bound
